Where a chain is given by its changes, count along the chain named.
T1: CD19 (UniProt P15391 20-556)
T1 construct: whole, on cells; also called CD19 on OCI-AML3-CD19 cells; Oci-AML-CD19
T1 sequence (looked up): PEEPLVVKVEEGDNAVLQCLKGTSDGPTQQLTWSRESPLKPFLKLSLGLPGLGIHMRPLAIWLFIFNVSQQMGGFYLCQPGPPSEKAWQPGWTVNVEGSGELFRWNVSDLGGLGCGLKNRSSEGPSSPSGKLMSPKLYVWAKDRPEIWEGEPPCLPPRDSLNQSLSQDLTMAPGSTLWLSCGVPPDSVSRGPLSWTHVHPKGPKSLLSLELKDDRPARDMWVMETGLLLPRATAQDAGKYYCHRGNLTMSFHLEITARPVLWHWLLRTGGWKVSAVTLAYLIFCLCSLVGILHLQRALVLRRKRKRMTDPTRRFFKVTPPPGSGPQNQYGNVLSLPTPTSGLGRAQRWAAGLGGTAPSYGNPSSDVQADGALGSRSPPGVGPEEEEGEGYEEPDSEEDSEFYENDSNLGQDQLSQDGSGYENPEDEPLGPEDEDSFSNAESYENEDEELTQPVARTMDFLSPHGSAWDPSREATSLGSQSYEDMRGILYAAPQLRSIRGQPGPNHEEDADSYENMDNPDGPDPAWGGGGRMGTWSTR

T2: CD20 (UniProt P11836 1-297, limits assumed)
T2 sequence (looked up): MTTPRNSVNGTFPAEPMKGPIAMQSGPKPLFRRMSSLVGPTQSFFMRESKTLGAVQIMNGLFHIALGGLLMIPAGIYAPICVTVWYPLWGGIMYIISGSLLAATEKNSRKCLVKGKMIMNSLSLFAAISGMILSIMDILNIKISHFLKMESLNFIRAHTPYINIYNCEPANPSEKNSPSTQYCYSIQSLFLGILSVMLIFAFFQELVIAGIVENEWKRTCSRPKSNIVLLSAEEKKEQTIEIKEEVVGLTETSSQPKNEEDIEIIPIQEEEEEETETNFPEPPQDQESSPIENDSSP

B1: R-TM-19/20_2 (other)
chain 1: not shown
chain 2: GQVQLVQSGAEVKKPGASVKVSCKASGYTFTHYYIYWVRQAPGQGLEWMGGVNPSNGGTHFNEKFKSRVTMTRDTSISTAYMELSRLRSDDTAVYYCARSEYDYGLGFAYWGQGTLVTVSSASTKGPSVFPLAPSSKSTSGGTAALGCLVKDYFPEPVTVSWNSGALTSGVHTFPAVLQSSGLYSLSSVVTVPSSSLGTQTYICNVNHKPSNTKVDKKVEPKSCDKTHTCPPCPAPPVAGPSVFLFPPKPKDTLMISRTPEVTCVVVDVSHEDPEVKFNWYVDGVEVHNAKTKPREEQYNSTYRVVSVLTVLHQDWLNGKEYKCKVSNKGLPSSIEKTISKAKGQPREPQVYTLPPSRDELTKNQVSLWCLVKGFYPSDIAVEWESNGQPENNYKTTPPVLDSDGSFFLYSKLTVDKSRWQQGNVFSCSVMHEALHNHYTQKSLSLSPGK
chain 3: GQVQLVESGGGLVQPGGSLRLSCAASGRTFSNYNMGWFRQAPGQGLEFVAAIDWSGGSPYYADSVKGRFTISRDNSKNTLYLQMNSLRAEDTAVYYCAAPLSYGSTWLADYWGQGTLVTVSSEPKSCDKTHTCPPCPAPPVAGPSVFLFPPKPKDTLMISRTPEVTCVVVDVSHEDPEVKFNWYVDGVEVHNAKTKPREEQYNSTYRVVSVLTVLHQDWLNGKEYKCKVSNKGLPSSIEKTISKAKGQPREPQVYTLPPSRDELTKNQVSLSCAVKGFYPSDIAVEWESNGQPENNYKTTPPVLDSDGSFFLVSKLTVDKSRWQQGNVFSCSVMHEALHNHYTQKSLSLSPGK
notes: also called R-TM 19/20_02
B2: R-TM-19/20_5 (other)
chain 1: not shown
chain 2: B1 chain 2
chain 3: GQVQLVESGGGLVQPGGSLRLSCAASGRTFSNYNMGWFRQAPGQGLEFVAAIDWSGGSPYYADSVKGRFTISRDNSKNTLYLQMNSLRAEDTAVYYCAAPLSYGSTWLADYWGQGTLVTVSSGGGGSGGGGSQVQLVESGGGLVQPGGSLRLSCAASGRTFSNYNMGWFRQAPGQGLEFVAAIDWSGGSPYYADSVKGRFTISRDNSKNTLYLQMNSLRAEDTAVYYCAAPLSYGSTWLADYWGQGTLVTVSSEPKSCDKTHTCPPCPAPPVAGPSVFLFPPKPKDTLMISRTPEVTCVVVDVSHEDPEVKFNWYVDGVEVHNAKTKPREEQYNSTYRVVSVLTVLHQDWLNGKEYKCKVSNKGLPSSIEKTISKAKGQPREPQVYTLPPSRDELTKNQVSLSCAVKGFYPSDIAVEWESNGQPENNYKTTPPVLDSDGSFFLVSKLTVDKSRWQQGNVFSCSVMHEALHNHYTQKSLSLSPGK
notes: Three-chain CD19/CD20 targeting module; also called R-TM 19/20_05
B3: R-TM-19/20_8 (other)
chain 1: not shown
chain 2: B1 chain 2
chain 3: GQVQLVESGGGLVQPGGSLRLSCAASGRTFSNYNMGWFRQAPGQGLEFVAAIDWSGGSPYYADSVKGRFTISRDNSKNTLYLQMNSLRAEDTAVYYCAAPLSYGSTWLADYWGQGTLVTVSSGGGGSGGGGSGGGGSEVQLVESGGGLVQPGGSLRLSCAASGFSFSDFWMSWVRQAPGKGLEWVATISQAGSEKDYVDSVKGRFTISRDNAKKSLYLQMNSLRAEDTAVYYCASGVYSFDYRGQGTLVTVSSEPKSCDKTHTCPPCPAPPVAGPSVFLFPPKPKDTLMISRTPEVTCVVVDVSHEDPEVKFNWYVDGVEVHNAKTKPREEQYNSTYRVVSVLTVLHQDWLNGKEYKCKVSNKGLPSSIEKTISKAKGQPREPQVYTLPPSRDELTKNQVSLSCAVKGFYPSDIAVEWESNGQPENNYKTTPPVLDSDGSFFLVSKLTVDKSRWQQGNVFSCSVMHEALHNHYTQKSLSLSPGK
notes: Three-chain CD19/CD20 targeting module; also called R-TM 19/20_08
B4: R-TM-19/20_21 (other)
chain 1: not shown
chain 2: B1 chain 2
chain 3: B1 chain 3
notes: Three-chain CD19/CD20 targeting module
B5: R-TM-19/20_11 (other)
chain 1: not shown
chain 2: B1 chain 2
chain 3: EVQLVESGGGLVQPGGSLRLSCAASGFSFSDFWMSWVRQAPGKGLEWVATISQAGSEKDYVDSVKGRFTISRDNAKKSLYLQMNSLRAEDTAVYYCASGVYSFDYRGQGTLVTVSSEPKSCDKTHTCPPCPAPPVAGPSVFLFPPKPKDTLMISRTPEVTCVVVDVSHEDPEVKFNWYVDGVEVHNAKTKPREEQYNSTYRVVSVLTVLHQDWLNGKEYKCKVSNKGLPSSIEKTISKAKGQPREPQVYTLPPSRDELTKNQVSLSCAVKGFYPSDIAVEWESNGQPENNYKTTPPVLDSDGSFFLVSKLTVDKSRWQQGNVFSCSVMHEALHNHYTQKSLSLSPGKGGGGSGGGGSGGGGSQVQLVESGGGLVQPGGSLRLSCAASGRTFSNYNMGWFRQAPGQGLEFVAAIDWSGGSPYYADSVKGRFTISRDNSKNTLYLQMNSLRAEDTAVYYCAAPLSYGSTWLADYWGQGTLVTVSS
notes: as for B4
B6: R-TM-19/20_15 (other)
chain 1: not shown
chain 2: B1 chain 2
chain 3: B2 chain 3
notes: as for B4
B7: R-TM-19/20_23 (other)
chain 1: not shown
chain 2: B1 chain 2
chain 3: B1 chain 3 with D63A, K66R
notes: as for B4
B8: R-TM-19/20_3 (other)
chain 1: not shown
chain 2: B1 chain 2
chain 3: B1 chain 3 with D63A, K66R
notes: Three-chain CD19/CD20 targeting module; also called R-TM 19/20_03

The binders below were run against T1, CD19 (assay: cellular binding assay, flow cytometry (gMFI) on OCI-AML3-CD19 cells).

Binder | EC50 [nM]
B1 | 18.4
B2 | 14.7
B3 | 14.8
B4 | 2.2
B5 | 5.2
B6 | 3.7
B7 | 3.4
B8 | 19

Each binder was assayed against T2, CD20 (assay: cell-based or functional assay).

Binder | CD20 killing EC50 [pM]
B1 | 7.2
B2 | 9.8
B3 | 14.2
B4 | 12.6
B5 | 17.9
B6 | 10.7
B7 | 2.1
B8 | 4.3

Each binder was assayed against T1, CD19 (assay: cell-based or functional assay).

Binder | CD19 killing EC50 [pM]
B1 | 3.8
B2 | 6.2
B3 | 7.1
B4 | 1.4
B5 | 3.8
B6 | 1.2
B7 | 1
B8 | 7.9

These binders were tested against T2, CD20 (assay: cellular binding assay, flow cytometry (gMFI) on OCI-AML3-CD20 cells).

Binder | EC50 [nM]
B1 | 43.6
B2 | 24.1
B3 | 37
B4 | 53.8
B5 | 62
B6 | 45.5
B7 | 23
B8 | 29.2

Reference: EP4566619A1 (AvenCell Therapeutics Inc., dated 2025)
